Source: publication PMC11878764, “MaEIL4-MaMADS36-MaACS7 module transcriptionally regulates ethylene biosynthesis during banana fruit ripening”

Biological target: MaMADS36 (Musa spp. (banana), UniProt A0ACE1XRG1 54-288)
Test: EMSA; Not given in material; EMSA according to Liu et al. [22]
Conditions: protein: recombinant; chain copies: 2

MaMADS36, sequence (A0ACE1XRG1 entry or part of it): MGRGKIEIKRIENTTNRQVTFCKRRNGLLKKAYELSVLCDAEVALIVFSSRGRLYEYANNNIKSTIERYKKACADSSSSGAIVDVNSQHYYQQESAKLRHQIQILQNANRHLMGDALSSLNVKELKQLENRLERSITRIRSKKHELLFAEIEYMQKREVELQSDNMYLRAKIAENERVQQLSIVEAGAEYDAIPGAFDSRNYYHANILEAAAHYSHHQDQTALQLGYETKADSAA

B1: MaACS7 promoter C(A/T)rG probe (dsDNA)
DNA 1: GTTTCTTTTTTGGT
DNA 2: ACCAAAAAAGAAAC
binding result: binds
